According to patent US20220073599A1 (Hoffmann-La Roche, published 2022):

Columns and labels:
human Ang2-RBD-muFc = target: T1, human Ang2-RBD-muFc (human, UniProt O15123 275-496, limits assumed); test: KinExA, human ANG2 (Ang2-RBD-muFc) by the table's title; the column's head prints VEGFA-121
T1 construct: also called Human ANG2 (KinExA); not shown: murine Fc (muFc)
T1 sequence: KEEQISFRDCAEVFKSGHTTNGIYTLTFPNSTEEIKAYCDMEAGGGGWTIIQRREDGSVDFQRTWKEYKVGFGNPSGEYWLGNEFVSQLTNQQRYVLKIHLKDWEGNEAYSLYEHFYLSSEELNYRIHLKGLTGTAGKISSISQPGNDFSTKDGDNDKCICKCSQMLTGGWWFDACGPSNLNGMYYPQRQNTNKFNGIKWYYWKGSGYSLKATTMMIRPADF
Description: All KinExA® experiments were performed at room temperature (RT) using PBS pH 7.4 with 0.01% BSA and 0.01% Tween® 20 (BioRad, #161-0781) as running buffer. […] A flow rate of 0.25 ml/min was used. A constant amount of Ang2-RBD-muFc (50 pM and in a second experiment 500 pM) was titrated with tested antibody by twofold serial dilution starting at 4 nM (concentration range 1.95 pM-4000 pM). Antigen-antibody complexes were incubated at RT for at least 8 h to allow equilibrium to be reached. Equilibrated mixtures were then drawn through a column of Anti-Ang2 antibody (MAB098) coupled beads in the KinExA® system at a volume of 750 μl for 50 pM constant Ang2 and at a volume of 188 μl for 500 pM constant Ang2 permitting unbound Ang2 to be captured by the beads without perturbing the equilibrium state of the solution. Bound Ang2 was detected using a second biotinylated anti-Ang2 antibody (BAM0981) with a concentration of 250 ng/ml and following by an injection of 250 ng/ml Streptavidin Alexa Fluor™ 647 conjugate in sample buffer. Each sample was measured in duplicates for all equilibrium experiments. The KD was obtained from non-linear regression analysis of the data using a one-site homogeneous binding model contained within the KinExA® software (Version 4.0.11) using the “standard analysis” method. […]

ANG2 = target: T2, ANG2 (human, UniProt O15123 19-496, limits assumed); test: cell-based or functional assay
T2 sequence: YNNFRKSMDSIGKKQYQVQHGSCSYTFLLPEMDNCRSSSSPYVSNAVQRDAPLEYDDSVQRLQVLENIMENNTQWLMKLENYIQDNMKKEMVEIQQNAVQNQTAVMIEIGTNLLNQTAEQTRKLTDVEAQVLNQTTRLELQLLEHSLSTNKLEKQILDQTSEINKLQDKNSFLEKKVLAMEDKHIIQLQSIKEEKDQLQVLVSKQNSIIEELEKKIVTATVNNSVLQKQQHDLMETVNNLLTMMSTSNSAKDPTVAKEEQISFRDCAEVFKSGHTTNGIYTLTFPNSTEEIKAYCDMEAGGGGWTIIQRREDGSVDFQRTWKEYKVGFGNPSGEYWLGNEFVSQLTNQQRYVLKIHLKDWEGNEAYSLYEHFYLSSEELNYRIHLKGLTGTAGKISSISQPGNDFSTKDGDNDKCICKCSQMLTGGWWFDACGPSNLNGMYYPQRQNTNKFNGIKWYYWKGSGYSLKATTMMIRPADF

B1: Nesvacumab-analogue (antibody, human IgG1, kappa, L234A L235A, V domains shown)
VH: AVQLVASGGGLVQPGGSLRLSCAASGFTFSSYDIHWVRQATGKGLEWVSAIGPAGDTYYPGSVKGRFTISRENAKNSLYLQMNSLRAGDTAVYYCARGLITFGGLIAPFDYWGQGTLVTVSS
VL: IVLTQSPGTLSLSPGERATLSCRASQSVSSTYLAWYQQKPGQAPRLLIYGASSRATGIPDRFSGSGSGTDFTLTISRLEPEDFAVYYCQHYDNSQTFGQGTKVEIKR
notes: also called Nesvacumab (INN); Nesvacumab Mab
Kd (human Ang2-RBD-muFc): 0.01 nM
IC50, pTie2-Assay (Tie2 phosphorylation in Hek293 cells expressing Tie2, stimulated with Ang-2) (ANG2): 6 nM
